Changes are numbered by the printed parent chain. Numbers in names are those of the source.
B1: hMfr (Mycolicibacterium hassiacum DSM 44199) (protein)
chain: MTLNTIALELVPPNSDGPDGGREQAVEDARKVLRCAAETGLAGRIGHVMIPGMIEEDPDRPIPMKPKMDVLDFWTIIRPELPGIRGLCTQVTAFLDEPALRRRLGDLSAAGFDGIAFVGVPRTMNDGEGHGVAPTDALSMFADLVPNRGAILIPTRDGEQGRFEFKCERGATYGMTQLLYSDAIVGFLREFARRTDHRPEILLSFGFVPKLEAKVGLINWLIQDPGNPAVAAEQEFVRRLAGLEPADKRKLMVDLYKRVIDGVADLGFPLSVHLEATYGVSVPAFETFAEMLAYWSPGQG
B2: hMfr (Mycolicibacterium hassiacum DSM 44199; E9Q) (protein)
chain: B1 chain with E9Q

Columns and labels:
purified protein [1] = substrate: Nc1nc2c(c(=O)[nH]1)N1CN(c3ccc(C(=O)N[C@@H](CCC(=O)O)C(=O)O)cc3)C[C@H]1CN2; test: purified protein; details: 100 μM NADH, 100 mM Mops/NaOH pH 7.0, 40 °C, under N2
purified protein [2] = substrate: NC(=O)C1=CN([C@@H]2O[C@H](COP(=O)(O)OP(=O)(O)OC[C@H]3O[C@@H](n4cnc5c(N)ncnc54)[C@H](O)[C@@H]3O)[C@@H](O)[C@H]2O)C=CC1; test: purified protein; details: 300 μM methylene-H4F, 100 mM Mops/NaOH pH 7.0, 40 °C, under N2

| Protein | Km (purified protein [1]) | kcat (purified protein [1]) | Km (purified protein [2]) | kcat (purified protein [2]) |
| --- | --- | --- | --- | --- |
| B1 | 160 ± 62 µM | 9.83 ± 1.42 s⁻¹ | 16 ± 3 µM | 9 ± 0.383 s⁻¹ |
| B2 | 250 ± 59 µM | 0.0217 ± 0.0017 s⁻¹ | 44 ± 13 µM | 0.0183 ± 0.0017 s⁻¹ |

Reference: paper doi:10.1101/2022.11.18.516900v2
